Laboratory results: patent US6670161B1, “Compositions and methods for template-dependent enzymatic synthesis of nucleic acid” (The Board of Trustees of the Leland Stanford Jr. University, priority 1991, dated 2003)
Where two headings read alike, the source gives them in different places.

Tests used:
[1] = Thermostability: preincubation at 37° C. before assaying polymerase activity; assay type: physicochemical
Experimental: Thermosensitivity. The thermostability of the two forms of polymerase α was also compared; this was done by preincubation at 37° C. for various times before assaying polymerase activity. […] (data not shown). These decreases in polymerase activity was not due to proteolysis of the polymerase protein.

[2] = system: matched 24 mer or mismatched 29 mer annealed to M13mp18 single stranded DNA; assay: Proofreading exonuclease assay on primed M13mp18; assay type: biochemical; conditions: up to 30 minutes at 37° C.
Experimental: Proofreading exonuclease activity of the recombinant single subunit poymerase α was assayed with a singly primed M13mp18 template (SEQ ID NO:5), primed either with a matched 24 mer (SEQ ID NO:4) (FIG. 8B) or a mismatched 29 mer (SEQ ID NO:2) (FIG. 8A), each ^32P-labeled at the 5′ end by T4 polynucleotide kinase. The mismatched 29 mer (SEQ ID NO:2) contains 9 mismatched T's on the 3′ terminus. Correct proofreading of this 29 mer (SEQ ID NO:2) annealed to M13mp18 (SEQ ID NO:3) would produce a 20 mer in the absence of deoxynucleotide triphosphates (dNTPs).
To perform the assay, two oligonucleotides, the universal primer, a 24 mer (matched primer) and RD29 mer (mismatched primer), were 5′-end labeled with ^32P-ATP and annealed to M13mp18 single stranded template. 0.1 pmole of this primed M13 was incubated in 20 mM Tris.HCl, pH 7.5, 10 mM MgCl2, 20 mM KCl and 2 mM dithiothreitol at 37° C. in the presence of polymerase in a final volume of 12 μl. Aliquots of 3 μl each were removed at 0, 2.5, 10 and 30 minutes into an equal volume of deionized formamide containing 1 mM EDTA, 0.1% xylene cyanol and 0.1% bromophenol blue and placed on ice. After heating at 95° C. for 5 minutes, one-half of the sample was loaded onto an 18% polyacrylamide, 7 M urea, Tris-borate-EDTA gel. […]

[3] = system: lacZ α-complementing gene in M13mp2 DNA; assay: DNA synthetic fidelity, forward mutation assay; assay type: biochemical; conditions: light blue and colorless plaques
Experimental: (§1) DNA Synthetic Fidelity. The fidelity of the single catalytic subunit and the four subunit polymerase α/primase was measured and compared. Three methods were used to measure a single round of gap filling synthesis within the lacZ α-complementing gene in M13mp2 DNA. See T. A. Kunkel et al. Mol. Cell. Biol. 9:4447 (1989). In all three assays, a gapped, double-stranded M13mp2 DNA is constructed which contains a single-stranded gap as the mutation target. The three assays are: (A) forward mutation assay, (B) opal codon reversion assay, and (C) assay for −1 base frame-shift.
(§2) The DNA synthetic mutational frequency and the error rate of the two forms of DNA polymerase α measured by these three methods are summarized in Table III. […] The DNA synthetic fidelity values obtained are also in agreement with the values previously determined for the four subunit polymerase α.

oligo(dT)12: poly(dA)290 = assay: Km for primer terminus; assay type: biochemical; conditions: oligo(dT)12: poly(dA)290, 2 mM MgCl2, 50 μM dTTP
Experimental: (§3) The standard assay for DNA polymerase α with gapped DNA was performed according to P. A. Fisher and D. Korn, J. Biol. Chem 252:6528 1977). Reactions were performed using optimally gapped salmon sperm DNA in 20 mM Tris.HCl, pH 8.0, 2 mM β-mercaptoethanol (“βME”), 200 μg/ml BSA, 10 mM MgCl2, 50 μM dNTP's with [α-^32P]dATP as the label. One unit of DNA polymerase is defined as the amount of polymerase that incorporates 1 nmole of labeled dNTP into acid-insoluble DNA at 37° C. in 60 min. […] All Kinetic parameters were calculated from Lineweaver-Burk plots by the method of least squares. Km was calculated of the basis of 3′-OH primer termini.

[4] = system: lacZ α-complementing gene in M13mp2 DNA; assay: DNA synthetic fidelity, minus-one frame-shift reversion assay; assay type: biochemical
Experimental: as §1, §2

[5] = system: lacZ α-complementing gene in M13mp2 DNA; assay: DNA synthetic fidelity, base-substitution (opal codon) reversion assay; assay type: biochemical
Experimental: as §1, §2

[6] = system: optimally gapped salmon sperm DNA, dNTP's; assay: Kinetic parameters of DNA polymerase α on gapped DNA (Lineweaver-Burk); assay type: biochemical; conditions: for Km: gapped salmon sperm DNA
Text: Characterization of Affinity. The four subunit-DNA polymerase α/primase complex was purified from human KB cells as described T. Wang et al., J. Biol. Chem. 259:1854 (1984) and used for comparison to the single polypeptide recombinant polymerase α for their respective affinities for dNTP, primer-terminus, and gapped DNA. Prior to the comparison, both the immunopurified recombinant single subunit-polymerase α and the four subunit-polymerase α/primase complex were stored in buffer containing 30% sucrose, 20% ethylene glycol, 50 mM Tris HCL, pH 8.6, 1 mM βME, 1 mM EDTA at −80° C. or stored on packed ice at 4° C.
as §3
The rate of catalysis of these two forms was also measured. The Kcat values determined for the two forms of polymerase α are of a similar order of magnitude.

B1: Single subunit recombinant Pol α: recombinant human DNA polymerase α catalytic polypeptide (180 kDa) immunopurified from AcHDPα infected Sf9 cells (protein)
chain: MAPVHGDDSLSDSGSFVSSRARREKKSKKGRQEALERLKKAKAGEKYKYEVEDFTGVYEEVDEEQYSKLVQARQDDDWIVDDDGIGYVEDGREIFDDDLEDDALDADEKGKDGKARNKDKRNVKKLAVTKPNNIKSMFIACAGKKTADKAVDLSKDGLLGDILQDLNTETPQITPPPVMILKKKRSIGASPNPFSVHTATAVPSGKIASPVSRKEPPLTPVPLKRAEFAGDDVQVESTEEEQESGAMEFEDGDFDEPMEVEEVDLEPMAAKAWDKESEPAEEVKQEADSGKGTVSYLGSFLPDVSCWDIDQEGDSSFSVQEVQVDSSHLPLVKGADEEQVFHFYWLDAYEDQYNQPGVVFLFGKVWIESAETHVSCCVMVKNIERTLYFLPREMKIDLNTGKETGTPISMKDVYEEFDEKIATKYKIMKFKSKPVEKNYAFEIPDVPEKSEYLEVKYSAEMPQLPQDLKGETFSHVFGTNTSSLELFLMNRKIKGPCWLEVKSPQLLNQPVSWCKVEAMALKPDLVNVIKDVSPPPLVVMAFSMKTMQNAKNHQNEIIAMAALVHHSFALDKAAPKPPFQSHFCVVSKPKDCIFPYAFKEVIEKKNVKVEVAATERTLLGFFLAKVHKIDPDIIVGHNIYGFELEVLLQRINVCKAPHWSKIGRLKRSNMPKLGGRSGFGERNATCGRMICDVEISAKELIRCKSYHLSELVQQILKTERVVIPMENIQNMYSESSQLLYLLEHTWKDAKFILQIMCELNVLPLALQITNIAGNIMSRTLMGGRSERNEFLLLHAFYENNYIVPDKQIFRKPQQKLGDEDEEIDGDTNKYKKGRKKAAYAGGLVLDPKVGFYDKFILLLDFNSLYPSIIQEFNICFTTVQRVASEAQKVTEDGEQEQIPELPDPSLEMGILPREIRKLVERRKQVKQLMKQQDLNPDLILQYDIRQKALKLTANSMYGCLGFSYSRFYAKPLAALVTYKGREILMHTKEMVQKMNLEVIYGDTDSIMINTNSTNLEEVFKLGNKVKSEVNKLYKLLEIDIDGVFKSLLLLKKKKYAALVVEPTSDGNYVTKQELKGLDIVRRDWCDLAKDTGNFVIGQILSDQSRDTIVENIQKRLIEIGENVLNGSVPVSQFEINKALTKDPQDYPDKKSLPHVHVALWINSQGGRKVKAGDTVSYVICQDGSNLTASQRAYAPEQLQKQDNLTIDTQYYLAQQIHPVVARICEPIDGIDAVLIATWLGLDPTQFRVHHYHKDEENDALLGGPAQLTDEEKYRDCERFKCPCPTCGTENIYDNVFDGSGTDMEPSLYRCSNIDCKASPLTFTVQLSNKLIMDIRRFIKKYYDGWLICEEPTCRNRTRHLPLQFSRTGPLCPACMKATLQPEYSDKSLYTQLCFYRYIFDAECALEKLTTDHEKDKLKKQFFTPKVLQDYRKLKNTAEQFLSRSGYSEVNLSKLFAGCAVKS
- Thermostability, % activity after 30 min at 37° C. [1]: 68%
- 3′-5′ exonuclease activity on matched and mismatched primer-template [2]: no apparent 3′-5′ exonuclease was detected
- Mutant frequency [3]: 300 ×10^−4
- Km (oligo(dT)12: poly(dA)290): 0.4 µM
- Error rate [4]: 1/1800
- Mutant frequency ([4]; blue plaques): 170 ×10^−5
- Error rate [5]: 1/4900
- Mutant frequency ([5]; blue plaques): 370 ×10^−6
- Kcat [6]: 1.6 s⁻¹
- Km ([6]; 10 mM MgCl2, pH 8.0, read-out: Km (dNTP)): 1.2 µM
- Km ([6]; read-out: Km (DNA in nucleotide)): 190 µM
